Usually koff stands for the first-order rate constant of dissociation.

The results in this text go back to patent publication US20150266963A1 (ARGEN X B V, published 2015).

The target of test [1] is T1, recombinant human CD70 (Flag-TNC-CD70) (human, UniProt P32970 39-193).
T1 construct: extracellular domain; Captured by anti-Flag mAb in ELISA; as 'recombinant human CD70' immobilised on Biacore CM5 chips; TNC is for trimerisation; also called recombinant CD70; human recombinant CD70; not shown: Flag tag and TNC trimerisation domain
T1 sequence (looked up): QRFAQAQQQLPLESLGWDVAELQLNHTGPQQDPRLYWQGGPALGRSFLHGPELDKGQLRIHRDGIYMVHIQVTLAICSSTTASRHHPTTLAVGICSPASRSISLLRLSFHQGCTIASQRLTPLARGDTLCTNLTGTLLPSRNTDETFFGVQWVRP
In words: Biacore; recombinant human CD70 on CM5 chip; Fab injected. How it is done:
Off-rates of the purified llama-derived anti-CD70 blocking Fabs were determined using the Biacore. Recombinant human CD70 was immobilized on a CM5 Biacore chip. The immobilization was performed in accordance with a method provided by Biacore and by using the NHS/EDC kit (Biacore AB): after activation of the chip, a solution of 50 μg/ml of recombinant CD70 in 10 mM acetate buffer with pH of 5 was prepared and 1 μl of this solution (50ng) was injected resulting in a surface density of approximately 1000 RU.
Fabs for the CD70 mAbs ARGX-110, MDX2H5 and SGN70 were prepared by […] digestion (SGN70 and MDX69A7 are described elsewhere herein, MDX2H5, also referred to as MDX1411, is described in WO2008/074004 FIGS. 1A and 1B). Fabs, at a concentration of approximately 100-400 μg/ml, were diluted 6-fold in hepes-buffered saline (0.1M Hepes, 1.5M NaCl, 30 mM EDTA, 0.5% v/v surfactant P20). They were injected (30 μl) and passed through the flow cells at a flow rate of 30 μl/min. After binding of the Fab to CD70, the off-rate was monitored for a period of 10 minutes. After the dissociation, the flow cell surfaces were regenerated by injecting 5 μl of 10 mM NaOH. Sometimes multiple injections of NaOH were needed to regenerate the surfaces depending on the affinity of the Fabs. Off-rate analysis was done by applying the BIAevaluation software. First, the sensogram of the blank runs were subtracted from those obtained with the coated flow cell. […] Moreover, the off-rate of CD27 for CD70 was determined as well.

Test [2] addresses T1, recombinant human CD70 (Flag-TNC-CD70). In words: Biacore; CD70 coated CM5 chip; Fab in periplasmic fraction. How it is done:
Phage eluted from rounds 3, 4 and 5 of selection were transfected into TG1 and plated clonally; individual clones were picked randomly for further analysis. Periplasmic fractions containing Fabs were prepared from IPTG induced small scale cultures the off rate of each Fab was determined using a CD70 coated CM5 chip in a Biacore binding assay. Clones with Fab having off rates similar to that of 27B3 were sequenced.

Residue numbers refer to the chain shown, from its start.

B1: 8B12 Fab (Fab, V domains shown)
VH: EVQLVESGGGLVQPGGSLRLSCAASGFTFSVYYMNWVRQAPGKGLEWVSDINNEGDTTYYADSVKGRFTISRDNAKNTLTLQMDSLKPEDTALYYCVRDAGYSNHVPIFDSWGQGTQVIVAS
VL: QTVVTQEPSLSVSPGGTVTLTCGLSSGSVTSSNYPGWYQQTPGQAPRVLIYNTNNRHSGVPSRYSGSISGNKAALTITGAEPEDEADYYCNLHLGSYTPMFGGGTKLTVLG
notes: Llama-derived Fab
In the case of B1, the koff in test [1] worked out at 0.00036 s⁻¹.

B2: 45B12 Fab (Fab, V domains shown)
VH: B1 VH with V31A, V48I, D56Y, T57E, L93R, P107Q
VL: QAVLTQPSSVSVSLGQTAKITCQGGNLGLYGANWYQQNPGRAPILLIYGDNYRPLGIPERFTISKSGGTATLTIDGAQAEDESDYYCQSADYSGNSVFGGGTKLTVLG
notes: Llama-derived Fab
On to B2, for which the koff in test [1] was 0.00021 s⁻¹.

B3: 45F8 Fab (Fab, V domains shown)
VH: B1 VH with V31A, V48I, D56Y, T57E, L93R, P107Q
VL: B2 VL with K19N, I47F, R53M, D81N, A90S, S93P
notes: Llama-derived Fab
With B3, the koff in test [1] was 0.0002 s⁻¹.

B4: 45D9 Fab (Fab, V domains shown)
VH: B1 VH with V31A, V48I, D56Y, T57E, L93R, P107Q
VL: B2 VL with G28W, Y52Q
notes: Llama-derived Fab
B4: the off-rate constant (koff) in test [1] stood at 0.00021 s⁻¹.

B5: 41D12 Fab (Fab, V domains shown)
VH: EVQLVESGGGLVQPGGSLRLSCAASGFTFSVYYMNWVRQAPGKGLEWVSDINNEGGTTYYADSVKGRFTISRDNSKNSLYLQMNSLRAEDTAVYYCARDAGYSNHVPIFDSWGQGTLVTVSS
VL: QAVVTQEPSLTVSPGGTVTLTCGLKSGSVTSDNFPTWYQQTPGQAPRLLIYNTNTRHSGVPDRFSGSILGNKAALTITGAQADDEAEYFCALFISNPSVEFGGGTQLTVLG
notes: Germlined 27B3 Fab, periplasmic fraction
B5: the dissociation rate constant (koff) in test [2] was 0.00023 s⁻¹.

B6: 39D5 Fab (Fab, V domains shown)
VH: B5 VH with V31G, S75A, S78T, A97V, L117T, S121A
VL: B5 VL with A2T, L24V, K25T, A82P, D83E, A86S, E87D, F89Y
notes: as for B5
Regarding B6, in test [2], the off-rate (koff) worked out at 0.00012 s⁻¹.

B7: 53G1 Fab (Fab, V domains shown)
VH: B1 VH with D56G, T80Y, D84N, L93V, Q117T, A121S
VL: B5 VL with A2T, L10F, T11S, K25T, D32T, T55S, D62S, A86S, E87D
notes: as for B5
Regarding B7, in test [2], the koff was determined as 0.0002 s⁻¹.

B8: 33D8 Fab (Fab, V domains shown)
VH: B1 VH with D56G, D84N
VL: QSALTQPSTVSVSLGQTARITCRGDSLERYGTNWYQQKPGQAPVLVIYDDDSRPSGIPERFSGSSSGATAALTISGAQAEDEGDYYCQSADSSGNAVFGGGTHLTVLG
notes: Llama-derived Fab
On to B8, for which the koff in test [1] turned out to be 0.00045 s⁻¹.

B9: 24E3 Fab (Fab, V domains shown)
VH: B1 VH with D56G, D84N
VL: QAVVTQEPSLSVSPGGTVTLTCGLTSGSVTSDNFPVWYQQTPGQAPRLLIYTINSRHSGVPSRFSGSITGNKAILTITGAQPEDEADYYCALYLENFANEFGGGTRLTVLG
notes: Llama-derived Fab
Turning to B9, in test [1], the koff is 8e-05 s⁻¹.

B10: 35G1 Fab (Fab, V domains shown)
VH: B5 VH with L18V, S75A, S78T, R87K, A88P, S121A
VL: B5 VL with A2T, L10F, T11S, T55S, A86S, E87D
notes: as for B5
In the case of B10, the off-rate (koff) in test [2] is 0.00023 s⁻¹.

B11: 36D6 Fab (Fab, V domains shown)
VH: B1 VH with D56G, T80Y, D84N, Q117T, I119T, A121S
VL: B5 VL with A2T, D32T, T55S, A86S, E87D
notes: as for B5
In the case of B11, the koff in test [2] was 0.00014 s⁻¹.

B12: 35G3 Fab (Fab, V domains shown)
VH: B5 VH with Y80T, R87K, A88P
VL: B5 VL with L10F, T11S, T55S, T78R, F89Y
notes: as for B5
As to B12, in test [2], the dissociation rate constant (koff) is 0.00017 s⁻¹.

B13: 53F1 Fab (Fab, V domains shown)
VH: B1 VH with D56G, D84N, L93V, I119T
VL: B5 VL with L10F, T11S, A86S, E87D
notes: as for B5
For the molecule B13, the koff in test [2] is 0.00023 s⁻¹.

B14: 36A9 Fab (Fab, V domains shown)
VH: B1 VH with D56G, A75S, D84N, L93V, A121S
VL: B5 VL with A2T, L10F, T11S, A86S, E87D
notes: as for B5
Take B14: the off-rate constant (koff) in test [2] came to 0.00013 s⁻¹.

B15: 36G2 Fab (Fab, V domains shown)
VH: B5 VH with S75A, Y80T, A97V, L117Q
VL: B5 VL with A82P, D83E, A86S, E87D, F89Y
notes: as for B5
For B15, the dissociation rate constant (koff) in test [2] stood at 0.00011 s⁻¹.

B16: 42D12 Fab (Fab, V domains shown)
VH: B5 VH with S78T, A97V, L117Q
VL: B5 VL with L10F, T11S, K25T, D32T, D62S
notes: as for B5
Consider B16, for which the dissociation rate constant (koff) in test [2] amounted to 0.00016 s⁻¹.

B17: 41H8 Fab (Fab, V domains shown)
VH: B5 VH with S78T, L117Q, S121A
VL: B5 VL with L10F, T11S, K25T, D32T, T55S, A82P, D83E, A86S, E87D
notes: as for B5
B17: the koff in test [2] is 0.00022 s⁻¹.

B18: 40F1 Fab (Fab, V domains shown)
VH: B5 VH with T57A, L117Q
VL: B5 VL with L10F, T11S
notes: as for B5
For B18, the koff in test [2] turned out to be 0.00016 s⁻¹.

B19: 39C3 Fab (Fab, V domains shown)
VH: B5 VH with E6A, S78T, L117T
VL: B5 VL with L10F, T11S, D62S, A86S, E87D, F89Y
notes: as for B5
With B19, in test [2], the koff came to 0.00025 s⁻¹.

B20: 35G2 Fab (Fab, V domains shown)
VH: B5 VH with S75A, S78T, R87K, A88P
VL: B5 VL with A2T, L10F, T11S, D32T, T55S, E87D
notes: as for B5
With B20, the koff in test [2] amounted to 0.00017 s⁻¹.

B21: 59D10 Fab (Fab, V domains shown)
VH: EVQLVESGGGLVQPGGSLRLSCAASELSFSISEMTWVRQAPGKGLEWVSGISGVTGGSSTSYADSVKGRFTISRDNDKNTLYLQMNSLIPEDTAVYYCATTSGTYYFIPEYEYWGQGTQVTVSS
VL: QSVLTQPPSVSGSPGKTVTISCAGTSSDVGYGYYVSWYQQFPGMAPKLLIYDVNKRASGIADRFSGSKAGNTASLTISGLQSEDEADYYCASYRSSANAVFGGGTHLTVLG
notes: Llama-derived Fab
As for B21, the koff in test [1] came to 0.00139 s⁻¹.
